This series has as its target EBNA1 DBD WT (Epstein-Barr virus (B95-8), UniProt P03211 459-607). The series can be described thus: SDS-EMSA. (Mobility shift assays separate free from complexed probe on a gel.)

This is an account of results in PMC8186250.

Chain of EBNA1 DBD WT (P03211 459-607): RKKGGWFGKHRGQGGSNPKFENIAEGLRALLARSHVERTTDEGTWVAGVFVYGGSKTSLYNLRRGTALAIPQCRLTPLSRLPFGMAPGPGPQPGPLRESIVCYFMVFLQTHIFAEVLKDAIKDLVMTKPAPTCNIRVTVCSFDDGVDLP

B1: 2xFR (dsDNA)
DNA 1: ATTAGGATAGCCTATGCTACCCAGATATAGATTAGGATAGCATATGCTACCCAGATATAGAGAGCGTCACCTAAGCC
DNA 2: GGCTTAGGTGACGCTCTATATCTGGGTAGCATATGCTATCCTAATCTATATCTGGGTAGCATAGGCTATCCTAAT
B1: the binding result was “binds”.
